The assay deals with microtubules (MTs) assembled from bovine brain tubulin (bovine) (UniProt Q6B856). The assay can be described thus: co-sedimentation.

For orientation: Kd means a measure of binding affinity in units of concentration. A low value points to tighter binding. For “human Profilin-1 (PFN1), wildtype (from UniProt P07737 1-140) (natural protein)”, the Kd was 10.7 µM.

(Values after paper PMC5772683.)
